Experimental data published in US9879058B2, “Use of compounds that selectively modulate astrocytic release of substances through hemichannels of connexins and pannexins, without influencing gap junctions, for the treatment of psychiatric disorders” (Universidad Andres Bello, priority 2012, dated 2018).
“Also recorded” adds a separate entry of the source. No end group written: not given here.

How the values were obtained:
[1] = target: T1, Cx43 hemichannels (Rattus norvegicus, UniProt P08050); assay: Ethidium (Etd) dye uptake in astrocytes; assay type: cell-based; conditions: 10 min preincubation
T1 construct: endogenous in cells; host or cells: primary hippocampal astrocytes of newborn (PN1) rats
T1 sequence (P08050 whole entry): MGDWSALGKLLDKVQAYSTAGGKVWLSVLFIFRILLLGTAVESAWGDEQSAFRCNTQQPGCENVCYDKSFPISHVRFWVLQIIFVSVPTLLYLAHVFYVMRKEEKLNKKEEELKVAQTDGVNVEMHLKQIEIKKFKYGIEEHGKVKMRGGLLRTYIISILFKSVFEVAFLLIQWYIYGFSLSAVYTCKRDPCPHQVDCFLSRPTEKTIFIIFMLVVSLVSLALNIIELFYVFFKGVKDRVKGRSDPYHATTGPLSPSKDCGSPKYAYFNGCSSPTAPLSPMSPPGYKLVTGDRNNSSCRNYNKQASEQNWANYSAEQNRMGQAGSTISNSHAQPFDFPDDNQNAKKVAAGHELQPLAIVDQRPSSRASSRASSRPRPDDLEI
Procedure: F. Immunohistochemistry: Brain slices previously fixed in buffered 4% paraformaldehyde and maintained in 30% sucrose were mounted in gelatin coated glass slides. After rinsing with PBS, slices were blocked and permeabilized with 1% bovine serum albumin (BSA, Sigma-Aldrich), and 3% Triton X-100 in PBS for 1 h at room temperature. After rinsing again, sections were incubated overnight at 4° C. with the primary anti-Cx43 antibody (Sigma). Afterwards, sections were rinsed with PBS and incubated for 1 h at 37° C. with Alexa Fluor® 488-conjugated secondary antibody. […]
G.2. […] H. Dye uptake: For single image visualization of dye uptake, astrocytes were bathed in recording solution [in mM: NaCl (148), KCl (5), CaCl2 (1.8), MgCl2 (1), glucose (5), HEPES (5), pH=7.4] containing 5 μM ethidium (Etd) (Sigma-Aldrich, St-Louis, Mo.), and fluorescence intensity was recorded for 10 min in selected cells (ROI, regions of interest). […] Metafluor software (version 6.2R5, Universal Imaging Co., Downingtown, Pa., USA) was used for off-line image analysis and fluorescence quantification.
For data representation, the average of two independent background fluorescence intensity measurements (FB, expressed as arbitrary units, AU) was subtracted from the fluorescence intensity in each cell (F1). […] Slopes of dye uptake were calculated using Microsoft Excel software and expressed as AU/min. […]

[2] = target: Cx43 hemichannels (Homo sapiens, UniProt P17302); conditions: cited from earlier work
Cx43 hemichannels (Homo sapiens, UniProt P17302), sequence (P17302 whole entry): as the sequence (P08050 whole entry) above, with E124D, V164I, R243K, T251S, P253A, S257A, P263Q, A344S, V347L counted along it

[3] = tested on: hippocampal primary neuronal cultures; assay: ATP and glutamate release in neuronal cultures; assay type: cell-based, rat; conditions: peptide 1 mM; neuronal cultures without astrocytes
Procedure: G.2. Neuronal cultures: Hippocampal neurons were obtained from hippocampus of E18 rats. Briefly, hippocampi were dissected as mentioned above for astrocyte cultures. Cells were seeded directly on poly-L-ornithine coated coverslips (1×10^5 cells/coverslip) in Neurobasal medium supplemented with penicillin (5 U/ml), streptomycin (5 μg/ml), B27 supplement and glutamax. Partial medium changes (¼) were done twice a week. H. Dye uptake: For single image visualization of dye uptake, astrocytes were bathed in recording solution [in mM: NaCl (148), KCl (5), CaCl2 (1.8), MgCl2 (1), glucose (5), HEPES (5), pH=7.4] containing 5 μM ethidium (Etd) (Sigma-Aldrich, St-Louis, Mo.), and fluorescence intensity was recorded for 10 min in selected cells (ROI, regions of interest). […] Metafluor software (version 6.2R5, Universal Imaging Co., Downingtown, Pa., USA) was used for off-line image analysis and fluorescence quantification.
I. Measurement of ATP and glutamate release induced by TAT-Cx43L2: Neurons were plated in multi well culture trays (10^6 cells/well/0.5 ml) and 48 h later were used for experiments. Extracellular ATP was measured by luciferin/luciferase bioluminescence assay kit (Sigma-Aldrich, St. Louis, Mo., USA). […]

In the case of “YGRKKRRQRRRDGANVDMHLKQIEIKKFKYGIEEHGK [TAT-Cx43L2, synthetic cell-permeable peptide corresponding to the Cx43L2 region (aa 119-144) of the cytoplasmic loop of Cx43]”, the “hemichannel activity (Etd uptake)” value ([1]; control conditions) is given as “blocked astrocyte hemichannel activity; also recorded: inhibited hemichannel activity”, the “hemichannel activity (Etd uptake)” value ([1]; divalent cation-free solution (DCFS)) is given as “complete inhibition of hemichannel activity; also recorded: reduced Etd uptake to the same level as in control cells” and the “effect on Cx43 hemichannels, previously shown” value [2] is given as “selectively block Cx43 hemichannels”. For the same sequence, the “ATP release in neuronal cultures” value [3] was “did not affect” and the “glutamate release in neuronal cultures” value [3] was “did not affect”.
